{"source": "paper PMC3458707", "about": "(Chemistry & biology, 2012)", "experiment_in_all_cases": "native MS", "key": {"[1]": {"biological_target": "T1, Recombinant firefly luciferase (firefly, UniProt P08659 1-550 = luciferase)", "T1 sequence (P08659 whole entry)": "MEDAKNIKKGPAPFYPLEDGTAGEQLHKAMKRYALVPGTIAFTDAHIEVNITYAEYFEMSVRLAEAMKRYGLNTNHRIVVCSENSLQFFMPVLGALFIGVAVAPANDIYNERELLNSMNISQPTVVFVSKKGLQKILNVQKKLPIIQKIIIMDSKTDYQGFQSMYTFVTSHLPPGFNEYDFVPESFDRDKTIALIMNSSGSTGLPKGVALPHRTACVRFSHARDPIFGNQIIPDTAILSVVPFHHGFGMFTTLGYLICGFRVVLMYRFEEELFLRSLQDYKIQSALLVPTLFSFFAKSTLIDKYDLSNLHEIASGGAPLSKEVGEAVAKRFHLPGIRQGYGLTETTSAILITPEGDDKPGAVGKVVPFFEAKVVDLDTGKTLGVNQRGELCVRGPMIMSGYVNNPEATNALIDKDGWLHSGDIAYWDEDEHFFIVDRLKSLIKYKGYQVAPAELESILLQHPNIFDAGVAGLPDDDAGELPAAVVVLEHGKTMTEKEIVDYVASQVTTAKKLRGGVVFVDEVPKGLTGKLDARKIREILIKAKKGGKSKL"}, "[2]": {"biological_target": "T1, Recombinant firefly luciferase", "remark": "listed apart in the source"}, "[3]": {"biological_target": "T2, mitochondrial pig heart malate dehydrogenase (pig, UniProt P00346 25-338)", "T2 sequence (looked up)": "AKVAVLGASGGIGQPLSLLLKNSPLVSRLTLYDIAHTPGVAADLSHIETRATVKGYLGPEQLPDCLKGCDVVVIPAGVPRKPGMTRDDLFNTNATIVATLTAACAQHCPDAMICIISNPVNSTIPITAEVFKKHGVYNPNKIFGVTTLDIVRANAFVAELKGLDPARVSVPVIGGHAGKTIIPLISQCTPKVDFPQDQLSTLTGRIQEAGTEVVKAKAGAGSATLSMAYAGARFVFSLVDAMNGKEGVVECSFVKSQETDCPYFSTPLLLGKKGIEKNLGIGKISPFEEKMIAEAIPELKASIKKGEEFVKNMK"}, "[4]": {"biological_target": "T3, pig heart citrate synthase (pig, UniProt P00889 28-464)", "T3 sequence (looked up)": "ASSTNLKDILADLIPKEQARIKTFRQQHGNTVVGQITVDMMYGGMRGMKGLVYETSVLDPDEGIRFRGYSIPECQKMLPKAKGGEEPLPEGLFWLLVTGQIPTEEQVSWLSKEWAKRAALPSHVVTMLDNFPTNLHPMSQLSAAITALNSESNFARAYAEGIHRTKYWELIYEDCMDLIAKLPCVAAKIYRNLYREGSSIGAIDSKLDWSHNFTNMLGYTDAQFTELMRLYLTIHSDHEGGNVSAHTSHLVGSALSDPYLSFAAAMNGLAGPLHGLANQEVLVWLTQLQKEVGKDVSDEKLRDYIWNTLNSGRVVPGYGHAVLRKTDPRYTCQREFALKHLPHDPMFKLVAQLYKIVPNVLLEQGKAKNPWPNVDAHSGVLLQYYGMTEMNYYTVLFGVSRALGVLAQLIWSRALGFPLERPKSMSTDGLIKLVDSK"}, "[5]": {"biological_target": "T1, Recombinant firefly luciferase", "remark": "listed apart in the source"}, "[6]": {"biological_target": "T2, mitochondrial pig heart malate …", "remark": "listed apart in the source"}, "[7]": {"biological_target": "T3, pig heart citrate synthase", "remark": "listed apart in the source"}}, "note": "Like-named read-outs stand apart in the source and are kept apart here.", "data": [{"binder": "HSP18.1 from Pisum sativum (pea) (natural protein, UniProt P19243 1-158, looked up) MSLIPSFFSGRRSNVFDPFSLDVWDPLKDFPFSNSSPSASFPRENPAFVSTRVDWKETPEAHVFKADLPGLKKEEVKVEVEDDRVLQISGERSVEKEDKNDEWHRVERSSGKFLRRFRLPENAKMDKVKASMENGVLTVTVPKEEIKKAEVKSIEISG", "values": [{"measurement": "stoichiometry N", "setting": "[1]", "value": "19.4 ± 0.4 subunits of HSP18.1 per Luc"}, {"measurement": "ratio of complexes [Target]1:[Target]2", "setting": "[2]", "value": "1.1 [Target]2 per [Target]1"}, {"measurement": "ratio of complexes [Target]1:[Target]2", "setting": "[3]", "value": "1.6 [Target]2 per [Target]1"}, {"measurement": "ratio of complexes [Target]1:[Target]2", "setting": "[4]", "value": "2.9 [Target]2 per [Target]1"}, {"measurement": "ratio of complexes [Target]1:[Target]2", "setting": "[5]", "value": "2.2 [Target]1 per [Target]2"}, {"measurement": "ratio of complexes [Target]1:[Target]2", "setting": "[6]", "value": "1.9 [Target]2 per [Target]1"}, {"measurement": "ratio of complexes [Target]1:[Target]2", "setting": "[7]", "value": "2 [Target]2 per [Target]1"}]}]}
